Reference: article PMC12331092, “An arginine switch drives the stepwise activation of β-arrestin by CXCR7” (PLOS Biology, 2025)
Square brackets hold non-standard residues; d marks the D form. Ends that are not written are not given here. pT = C[C@@H](OP(=O)(O)O)[C@H](N)C(=O)O; pS = N[C@@H](COP(=O)(O)O)C(=O)O

B1: C7pp2, phosphopeptide from the carboxyl terminus of CXCR7 (residues 346-359) (peptide, UniProt P25106 346-359, looked up)
peptide: ASRV[pS]E[pT]EY[pS]ALEQ
notes: CXCR7 (atypical chemokine receptor), C-terminal residues 346-359; also called distal phospho-site cluster PxPxxP; source: synthetic peptide (NovoPep and Tufts University Core Facility)
B2: C7pp3, phosphopeptide from the carboxyl terminus of CXCR7 (residues 346-362) (peptide, UniProt P25106 346-362, looked up)
peptide: A[pS]RV[pS]E[pT]EY[pS]ALEQ[pS][pT]K
notes: CXCR7, C-terminal residues 346-362; source: synthetic peptide (NovoPep and Tufts University Core Facility)

Tests used:
Details in all cases: both partners purified
βarr2 R166A mutant = target: T1, βarr2 R166A mutant (Rattus norvegicus, UniProt P29067 1-410, R166A); test: ITC; 1 mM peptide injected (2.5 μL, 200 s intervals) into 200 μM βarr2 in the cell; 298 K; 20 mM HEPES pH 7.0, 200 mM NaCl; two-site model for the wild type
T1 construct: β-arrestin2, rat (as the wild type m1), with R166A; also called R166A (site I); source: purified

[1] = target: T2, Rattus norvegicus wild-type β-arrestin2 (Rattus norvegicus, UniProt P29067 1-410); test: as above
T2 construct: β-arrestin2, Rattus norvegicus, UniProt P29067, cloned into pET-28a; also called βarr2; wild-type βarr2; source: E. coli BL21(DE3)pLysS, purified (Ni-sepharose, HiTrap heparin, Superdex 200 gel filtration); not shown: His6, N-terminal, kept

βarr2 R394A mutant = target: T3, βarr2 R394A mutant (Rattus norvegicus, UniProt P29067 1-410, R394A); test: as above
T3 construct: β-arrestin2, rat (as the wild type m1), with R394A; also called R394A (site II); source: purified

[2] = target: T2, Rattus norvegicus wild-type β-arrestin2; test: pull-down; 20 μg βarr2 pre-incubated with or without peptide (5:1 peptide:βarr2, 4 °C, 1 h), then GST beads with 30 μg GST-clathrin, 2 h at 4 °C; 20 mM Tris-HCl pH 8.0, 100 mM NaCl, 1 mM DTT; GSH elution, anti-His Western blot

T2 sequence (P29067 whole entry): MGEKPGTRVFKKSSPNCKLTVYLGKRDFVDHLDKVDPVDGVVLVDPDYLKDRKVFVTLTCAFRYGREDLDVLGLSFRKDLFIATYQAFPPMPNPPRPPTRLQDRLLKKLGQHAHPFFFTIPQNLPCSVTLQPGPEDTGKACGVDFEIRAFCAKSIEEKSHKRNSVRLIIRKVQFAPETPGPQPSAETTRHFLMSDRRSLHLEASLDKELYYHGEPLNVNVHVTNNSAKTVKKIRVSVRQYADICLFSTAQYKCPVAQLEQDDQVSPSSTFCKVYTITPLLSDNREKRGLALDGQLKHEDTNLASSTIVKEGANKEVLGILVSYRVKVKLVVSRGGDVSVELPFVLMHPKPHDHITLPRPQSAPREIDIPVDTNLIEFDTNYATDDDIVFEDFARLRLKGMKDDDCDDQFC
T3 sequence (P29067 whole entry R394A): as the sequence (P29067 whole entry) above, with R394A counted along it
T1 sequence (P29067 whole entry R166A): as the sequence (P29067 whole entry) above, with R166A counted along it

Row | Binder | Kd (βarr2 R166A mutant) [µM] | binding result [1] | Kd (βarr2 R394A mutant) [µM] | binding result [2]
1 | B1 | 16.4 | binds | 1.1 | –
2 | B2 | – | – | – | binds
